Here are results for two proteins from publication PMC4688242 (Neurobiology of disease, 2015).

This data set concerns the molecule itself. The experiment in a line: SDS-PAGE and Western blot of SDS-resistant oligomers. Background: A western blot detects proteins with antibodies after separation by electrophoresis.

B1: ADan pE (34-amino acid ADan amyloid peptide with N-terminal pyroglutamate) (peptide)
peptide: EASNCFAIRHFENKFAVETLICFNLFLNSQEKHY
modifications: N-terminal pyroglutamate (pE) in place of Glu1
As to B1, the binding result is listed as “binds”.

B2: ADan E (34-amino acid ADan amyloid peptide with N-terminal glutamate) (peptide)
peptide: B1 peptide
As for B2, the binding result is “binds”.
